# Measured values published in US20090041784A1 (Amgen, published 2009).
# Like-named read-outs stand apart in the source and are kept apart here.
# T1: cynomolgus glucagon receptor (cynomolgus (Macaca fascicularis), UniProt P47871 26-477 (human entry))
# T1 chain: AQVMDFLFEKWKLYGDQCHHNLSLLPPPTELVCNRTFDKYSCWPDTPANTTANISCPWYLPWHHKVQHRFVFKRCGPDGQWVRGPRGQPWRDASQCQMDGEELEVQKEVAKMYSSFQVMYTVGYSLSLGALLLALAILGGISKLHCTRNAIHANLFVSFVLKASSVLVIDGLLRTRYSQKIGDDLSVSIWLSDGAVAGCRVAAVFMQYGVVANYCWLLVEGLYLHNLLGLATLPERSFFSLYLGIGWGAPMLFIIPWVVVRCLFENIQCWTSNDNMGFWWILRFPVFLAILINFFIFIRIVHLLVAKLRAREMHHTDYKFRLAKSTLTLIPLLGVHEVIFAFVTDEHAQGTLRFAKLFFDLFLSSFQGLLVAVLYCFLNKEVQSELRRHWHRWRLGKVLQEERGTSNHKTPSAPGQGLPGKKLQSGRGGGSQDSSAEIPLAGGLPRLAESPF
# How the values were obtained:
# [1] = biological target: T2, human glucagon receptor (human, UniProt P47871 26-477); assay: cell-based or functional assay
# [2] = biological target: T1, cynomolgus glucagon receptor; assay: cell-based or functional assay
# [3] = biological target: T3, mouse glucagon receptor (mouse (Mus musculus), UniProt Q61606 27-485); assay: cell-based or functional assay
# [4] = biological target: T4, rat glucagon receptor (rat (Rattus norvegicus), UniProt P30082 27-485); assay: cell-based or functional assay
# [5] = biological target: T2, human glucagon receptor; assay: Schild analysis of glucagon dose-response curves (cAMP HTRF) on CHO K1 cells expressing the receptor
# [6] = biological target: T1, cynomolgus glucagon receptor; assay: as above
# [7] = biological target: T3, mouse glucagon receptor; assay: as above
# [8] = biological target: T4, rat glucagon receptor; assay: as above
# [9] = biological target: T2, human glucagon receptor; assay: cell-based or functional assay; remark: listed apart in the source
# [10] = biological target: T5, chimera-8 (amino acids 80-477 from human GCGR, remainder from human GLP-1 receptor) (human, UniProt P43220 24-83); assay: FMAT on cells expressing the chimeric receptor
# T5 construct: Expressed on cells; not shown: in-frame C-terminal fluorescent protein, not identified
# [11] = biological target: T6, chimera-10 (amino acids 80-142 from human GCGR, remainder from human GLP-1 receptor) (human, UniProt P43220 24-83; P43220 146-463); assay: FMAT on cells expressing the chimeric receptor
# T6 construct: Expressed on cells; not shown: in-frame C-terminal fluorescent protein, not identified
# [12] = biological target: T7, chimera-15 (amino acids 80-119 from human GCGR, remainder from human GLP-1 receptor) (human, UniProt P43220 24-83; P43220 125-463); assay: FMAT on cells expressing the chimeric receptor
# T7 construct: Expressed on cells; not shown: in-frame C-terminal fluorescent protein, not identified
Binder,"IC50 of inhibition of glucagon-induced cAMP production (HTRF, CHO K1 cells expressing the receptor) [1]","IC50 of inhibition of glucagon-induced cAMP production (HTRF, CHO K1 cells expressing the receptor) [2]","IC50 of inhibition of glucagon-induced cAMP production (HTRF, CHO K1 cells expressing the receptor) [3]","IC50 of inhibition of glucagon-induced cAMP production (HTRF, CHO K1 cells expressing the receptor) [4]",Kb (dissociation constant of antibody binding by Schild analysis) [5],Kb (dissociation constant of antibody binding by Schild analysis) [6],Kb (dissociation constant of antibody binding by Schild analysis) [7],Kb (dissociation constant of antibody binding by Schild analysis) [8],"IC50 of inhibition of glucagon-induced cAMP production (HTRF, CHO K1 cells expressing the receptor) [9]",binding result [10],binding result [11],binding result [12]
"antibody A-3 (antibody, V domains shown, Human antibody from XenoMouse hybridoma; also called L3H3; antibody 3) VH: QVQLVESGGGVVQPGRSLRLSCAASGFTFSSYGMHWVRQAPGKGLEWVAVMWYDGSNKDYVDSVKGRFTISRDNSKNTLYLQMNRLRAEDTAVYYCAREKDHYDILTGYNYYYGLDVWGQGTTVTVSS VL: DIQMTQSPSSLSASVGDRVTITCRASQGIRNDLGWYQQKPGKAPKRLIYAASSLQSGVPSRFSGSGSGTEFTLTISSVQPEDFVTYYCLQHNSNPLTFGGGTKVEIK",9.1 nM,22.5 nM,4.9 nM,13.5 nM,1.6 nM,5 nM,0.5 nM,3.2 nM,,,,
"antibody A-4 (antibody, V domains shown, Human antibody from XenoMouse hybridoma (IgG2 or IgG4 strains), purified from conditioned medium; also called L4H4; antibody 4) VH: QVQLVESGGGVVQPGRSLRLSCAASGFTFSSYGMHWVRQAPGKGLEWVAVMWYDGSNKDYVDSVKGRFTISRDNSKNTLYLQMNSLRAEDTAVYYCAREKDHYDILTGYNYYYGLDVWGQGTTVTVSS VL: DIQMTQSPSSLSASVGDRVTITCRASQGIRNDLGWYQQKPGKAPKRLIYAASSLQSGVPSRFSGSGSGTEFTLTISSLQPEDFATYYCLQHNSNPLTFGGGTKVEIK",18.1 nM,52.1 nM,10.1 nM,17.2 nM,1.76 nM,5.7 nM,0.88 nM,,,,,
"antibody A-18 (antibody, V domains shown, Human antibody from XenoMouse hybridoma (IgG2 or IgG4 strains), purified from conditioned medium; also called L18H18) VH: QVQLVESGGGVVQPGRSLRLSCAASGFTFSRYGMHWVRQAPGKGLEWVAVIWYDGSHKYYEDSVKGRFTISRDNSKNTLYLQMNSLRADDTGVYYCARVGYGSGWYEYYYHYGMDVWGQGTTVTVSS VL: NIVMTQTPLSLSVTPGQPASISCKSSQSLLHSDGKNYLFWYLQKPGQSPQLLIYEVSYRFSGVPDRFSGSGSGTDFSLKISRVEAEDVGVYYCMQNIQPPLTFGQGTRLEIK",,,,,,,,,204 nM,no binding,no binding,no binding
"antibody A-10 (antibody, V domains shown, Human antibody from XenoMouse hybridoma (IgG2 or IgG4 strains), purified from conditioned medium; also called L10H10) VH: QVQLQQSGPGLVRPSQTLSLTCAISGDSVSSNYAAWNWIRQSPSRGLEWLGRTYYRSKWYNDYAVSVRSRTTINPDTSKNQFSLQLNSVTPEDTAVYYCTREDGSGWYGAFDIWGQGTMVTVSS VL: DIQMTQSPSSLSASVGDRVTITCQASQDISKYLNWYQQKPGKAPKLLIYDASNLETGVPSRFSGSGSGTDFTFTISSLQPEDIATYYCQQYGNLPITFGQGTRLESK",,,,,,,,,,no binding,no binding,no binding
"antibody A-21 (antibody, V domains shown, Human antibody from XenoMouse hybridoma; also called L21H21) VH: EVRLVESGGDLVQPGGSLRLSCAASGFTFSSYAMNWVRQAPGKGLEWISYIGSSSSAIYYGDSVKGRFTISRDNAKNSLYLQMNSLRDEDTAVYYCARYRSGWSPLFDFWGQGSLVTVSS VL: DIQMTQSPSSVSASVGDRVTITCRASQGISSWLAWYQQKPGKAPKLLIYAASSLQSGVPSRFSGSGSGTDFTLTISSLQPEDFATYYCQQANSFPLTFGGGTKVEIK",,,,,,,,,47.2 nM,no binding,no binding,no binding
